For orientation: Kd means the concentration at which binding is half-saturated. Lower therefore signals a tighter complex. The term koff denotes a measure of how fast the partners let go of each other. The low end stands for a long-lived complex, the high end for a short-lived complex. Usually kon stands for the rate constant with which the complex forms. Read a high kon as fast association.

Among the data in patent US20240409617A1 are Kd, koff and kon values, retold here.

In the test the target is Human FcRn, biotinylated (human) (UniProt P55899).

Regarding Atezolizumab (antibody), the Kd came to 19.7 nM, the koff stood at 0.00877 s⁻¹ and the kon came out at 445000 M⁻¹ s⁻¹.
